For assay [1], the target named is recombinant human PD-1^ECD-hFc protein (human) (UniProt Q15116). The assay is described as follows: ELISA, coated PD-1-hFc, 1 µg/mL. (ELISA stands for enzyme-linked immunosorbent assay.)
The target is the same in assay [2]. The assay is described as follows: ELISA, coated PD-1-hFc, 0.2 µg/mL.
For assay [3] the target is unchanged. In words: ELISA, coated PD-1-hFc, 0.04 µg/mL.
For assay [4] the target is unchanged. In words: ELISA, coated PD-1-hFc, 0.008 µg/mL.
The target is the same in assay [5]. In words: ELISA, coated PD-1-hFc, 0.0001 µg/mL.
Assay [6] has the same target. The assay is described as follows: ELISA, coated PD-1-hFc, 0.0003 µg/mL.
Assay [7] shares this target. The assay is described as follows: ELISA, coated PD-1-hFc, 0.0016 µg/mL.
Assay [8] shares this target. The assay is described as follows: ELISA, coated PD-1-hFc, 0.00001 µg/mL.

Sequence of recombinant human PD-1^ECD-hFc protein (human) (Q15116 25-167): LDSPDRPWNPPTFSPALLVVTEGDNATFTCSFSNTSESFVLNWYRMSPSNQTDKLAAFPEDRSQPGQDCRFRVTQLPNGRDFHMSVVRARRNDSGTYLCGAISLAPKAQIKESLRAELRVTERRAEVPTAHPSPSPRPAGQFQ

For the substance “control protein (biotinylated non-PD-L1^ECD-hFc)”, the OD450 nm was 0.51 in assay [1]; 0.1 in assay [2]; 0.49 in assay [3]; 0.135 in assay [4]; 0.12 in assay [5]; 0.255 in assay [6]. Besides, the OD450 nm in assay [7] was found to be 0.19; in assay [8], 0.09.

The record behind these values is patent publication US20190010233A1.
